Each substance was assayed against α2-antiplasmin (UniProt P08697).
Chain of α2-antiplasmin (P08697 40-491): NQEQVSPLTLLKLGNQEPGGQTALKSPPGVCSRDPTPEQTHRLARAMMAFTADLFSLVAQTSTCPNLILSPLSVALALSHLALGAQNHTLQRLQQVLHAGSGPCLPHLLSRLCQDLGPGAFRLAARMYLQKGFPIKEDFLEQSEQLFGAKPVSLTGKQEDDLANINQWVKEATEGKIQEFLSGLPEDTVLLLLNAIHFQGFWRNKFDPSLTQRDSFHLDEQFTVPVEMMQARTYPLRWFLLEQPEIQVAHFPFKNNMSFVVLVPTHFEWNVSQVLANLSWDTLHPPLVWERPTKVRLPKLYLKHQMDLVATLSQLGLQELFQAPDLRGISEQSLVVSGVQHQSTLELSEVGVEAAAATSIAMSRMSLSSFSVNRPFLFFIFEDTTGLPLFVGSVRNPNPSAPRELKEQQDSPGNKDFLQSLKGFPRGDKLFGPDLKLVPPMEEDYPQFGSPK

Chain of Mono-PEGylated Micro-plasmin variant (20 kDa PEG) E85C Catalytic Domain (SEQ ID NO. 7) (chain, as listed by the source E85C): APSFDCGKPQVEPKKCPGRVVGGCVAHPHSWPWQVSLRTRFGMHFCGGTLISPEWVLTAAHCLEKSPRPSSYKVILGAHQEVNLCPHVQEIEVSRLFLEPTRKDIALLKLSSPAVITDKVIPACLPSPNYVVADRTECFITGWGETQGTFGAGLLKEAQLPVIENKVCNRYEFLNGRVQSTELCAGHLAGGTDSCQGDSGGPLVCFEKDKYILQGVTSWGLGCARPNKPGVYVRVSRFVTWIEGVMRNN
Chain of Mono-PEGylated Micro-plasmin variant (20 kDa PEG) V88C Catalytic Domain (SEQ ID NO. 10) (chain, as listed by the source V88C): as the sequence (chain, as listed by the source E85C) above, with C85E, V88C counted along it
Chain of Mono-PEGylated Micro-plasmin variant (20 kDa PEG) P86C Catalytic Domain (SEQ ID NO. 8) (chain, as listed by the source P86C): as the sequence (chain, as listed by the source E85C) above, with C85E, P86C counted along it
Chain of Mono-PEGylated Micro-plasmin variant (40 kDa PEG) E85C Catalytic Domain (SEQ ID NO. 7) (chain, as listed by the source E85C): as the sequence (chain, as listed by the source E85C) above
Chain of Bi-PEGylated Micro-plasmin variant (20 kDa-20 kDa PEG) E85C-H87C Catalytic Domain (SEQ ID NO. 11) (chain, as listed by the source E85C H87C): as the sequence (chain, as listed by the source E85C) above, with H87C counted along it
Chain of Mono-PEGylated Micro-plasmin variant (40 kDa PEG) V88C Catalytic Domain (SEQ ID NO. 10) (chain, as listed by the source V88C): as the sequence (chain, as listed by the source E85C) above, with C85E, V88C counted along it
Chain of Mono-PEGylated Micro-plasmin variant (40 kDa PEG) P86C Catalytic Domain (SEQ ID NO. 8) (chain, as listed by the source P86C): as the sequence (chain, as listed by the source E85C) above, with C85E, P86C counted along it

Substance | In vitro Half-life (of inactivation by α2-antiplasmin)
Bi-PEGylated Micro-plasmin variant (20 kDa-20 kDa PEG) E85C-H87C Catalytic Domain (SEQ ID NO. 11) | >10 min
Mono-PEGylated Micro-plasmin variant (20 kDa PEG) E85C Catalytic Domain (SEQ ID NO. 7) | 6 to 7 min
Mono-PEGylated Micro-plasmin variant (20 kDa PEG) P86C Catalytic Domain (SEQ ID NO. 8) | 6 to 7 min
Mono-PEGylated Micro-plasmin variant (20 kDa PEG) V88C Catalytic Domain (SEQ ID NO. 10) | 6 to 7 min
Mono-PEGylated Micro-plasmin variant (40 kDa PEG) E85C Catalytic Domain (SEQ ID NO. 7) | >7 min
Mono-PEGylated Micro-plasmin variant (40 kDa PEG) P86C Catalytic Domain (SEQ ID NO. 8) | >7 min
Mono-PEGylated Micro-plasmin variant (40 kDa PEG) V88C Catalytic Domain (SEQ ID NO. 10) | >7 min

From patent US20220096608
